Earlier results as cited in publication PMC11379947 (Nature Communications, 2024).

Biological target: T1, ICOS (Homo sapiens, UniProt Q9Y6W8)
T1 sequence (Q9Y6W8 21-199): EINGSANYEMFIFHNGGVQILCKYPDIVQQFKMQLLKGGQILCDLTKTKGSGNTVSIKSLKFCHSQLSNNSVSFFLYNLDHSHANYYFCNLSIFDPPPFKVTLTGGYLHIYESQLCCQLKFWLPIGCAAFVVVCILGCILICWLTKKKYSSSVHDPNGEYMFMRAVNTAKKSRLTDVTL
Conditions: read-out: KD of natural ICOS ligand; cited from earlier work

B1: ICOSL: the natural ICOS ligand (protein, UniProt O75144 19-302, looked up)
ICOS ligand: DTQEKEVRAMVGSDVELSCACPEGSRFDLNDVYVYWQTSESKTVVTYHIPQNSSLENVDSRYRNRALMSPAGMLRGDFSLRLFNVTPQDEQKFHCLVLSQSLGFQEVLSVEVTLHVAANFSVPVVSAPHSPSQDELTFTCTSINGYPRPNVYWINKTDNSLLDQALQNDTVFLNMRGLYDVVSVLRIARTPSVNIGCCIENVLLQQNLTVGSQTGNDIGERDKITENPVSTGEKNAATWSILAVLCLLVVVAVAIGWVCRDRCLQHSYAGAWAVSPETELTGHV
Kd: 722 nM
